# In patent publication US20120238493A1 (INDIANA UNIVERSITY RESEARCH AND TECHNOLOGY, published 2012):
# Where two headings read alike, the source gives them in different places. *1 amine or outer side, *2 acyl side, *3 side chain or, on linkers, in order; H or OH if unused. Where no end group is shown, it is not given here. Side-chain parts run from the residue outwards. [ ]: non-standard residue; d: D form. The star is where a group is joined. γGlu = O=C(O)[C@H](CCC(=O)[*:2])N[*:1]; Palmitoyl = CCCCCCCCCCCCCCCC(=O)*; Aib = CC(C)(N)C(=O)O
# T1: GIP receptor (UniProt P48546 22-466, limits assumed)
# T1 sequence (looked up): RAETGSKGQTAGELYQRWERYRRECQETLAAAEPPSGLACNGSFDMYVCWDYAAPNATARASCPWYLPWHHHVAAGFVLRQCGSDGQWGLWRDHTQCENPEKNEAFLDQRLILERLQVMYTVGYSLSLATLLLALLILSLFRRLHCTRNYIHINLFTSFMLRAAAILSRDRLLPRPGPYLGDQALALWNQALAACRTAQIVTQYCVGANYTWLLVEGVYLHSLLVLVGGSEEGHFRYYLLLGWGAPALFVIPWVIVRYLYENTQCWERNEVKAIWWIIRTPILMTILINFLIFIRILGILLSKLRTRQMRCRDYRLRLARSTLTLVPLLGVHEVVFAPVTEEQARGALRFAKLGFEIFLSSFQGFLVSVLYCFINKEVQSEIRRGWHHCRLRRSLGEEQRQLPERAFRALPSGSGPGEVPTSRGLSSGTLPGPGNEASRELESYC
# B1: dual acylated peptide of SEQ ID NO: 163 (peptide)
# peptide: H[Aib]QGTFTSDK([γGlu-Palmitoyl])SKYLDERAAQDFVQWLLDGGPSSGAPPPSK([γGlu-Palmitoyl])-NH2
# modifications: N-terminus assumed
# SMILES: CCCCCCCCCCCCCCCC(=O)N[C@@H](CCC(=O)NCCCC[C@H](NC(=O)[C@H](CO)NC(=O)[C@@H]1CCCN1C(=O)[C@@H]1CCCN1C(=O)[C@@H]1CCCN1C(=O)[C@H](C)NC(=O)CNC(=O)[C@H](CO)NC(=O)[C@H](CO)NC(=O)[C@@H]1CCCN1C(=O)CNC(=O)CNC(=O)[C@H](CC(=O)O)NC(=O)[C@H](CC(C)C)NC(=O)[C@H](CC(C)C)NC(=O)[C@H](Cc1c[nH]c2ccccc12)NC(=O)[C@H](CCC(N)=O)NC(=O)[C@@H](NC(=O)[C@H](Cc1ccccc1)NC(=O)[C@H](CC(=O)O)NC(=O)[C@H](CCC(N)=O)NC(=O)[C@H](C)NC(=O)[C@H](C)NC(=O)[C@H](CCCNC(=N)N)NC(=O)[C@H](CCC(=O)O)NC(=O)[C@H](CC(=O)O)NC(=O)[C@H](CC(C)C)NC(=O)[C@H](Cc1ccc(O)cc1)NC(=O)[C@H](CCCCN)NC(=O)[C@H](CO)NC(=O)[C@H](CCCCNC(=O)CC[C@H](NC(=O)CCCCCCCCCCCCCCC)C(=O)O)NC(=O)[C@H](CC(=O)O)NC(=O)[C@H](CO)NC(=O)[C@@H](NC(=O)[C@H](Cc1ccccc1)NC(=O)[C@@H](NC(=O)CNC(=O)[C@H](CCC(N)=O)NC(=O)C(C)(C)NC(=O)[C@@H](N)Cc1c[nH]cn1)[C@@H](C)O)[C@@H](C)O)C(C)C)C(N)=O)C(=O)O
# B2: Analog No. 61: Aib2, K10acyl, E16, Aib20, E21, L27, D28, G29 + CEX (SEQ ID NO: 37) (peptide)
# peptide: H[Aib]QGTFTSDK([γGlu-Palmitoyl])SKYLDERRA[Aib]EFVQWLLDGGPSSGAPPPS-NH2
# modifications: N-terminus assumed
# SMILES: CCCCCCCCCCCCCCCC(=O)N[C@@H](CCC(=O)NCCCC[C@H](NC(=O)[C@H](CC(=O)O)NC(=O)[C@H](CO)NC(=O)[C@@H](NC(=O)[C@H](Cc1ccccc1)NC(=O)[C@@H](NC(=O)CNC(=O)[C@H](CCC(N)=O)NC(=O)C(C)(C)NC(=O)[C@@H](N)Cc1c[nH]cn1)[C@@H](C)O)[C@@H](C)O)C(=O)N[C@@H](CO)C(=O)N[C@@H](CCCCN)C(=O)N[C@@H](Cc1ccc(O)cc1)C(=O)N[C@@H](CC(C)C)C(=O)N[C@@H](CC(=O)O)C(=O)N[C@@H](CCC(=O)O)C(=O)N[C@@H](CCCNC(=N)N)C(=O)N[C@@H](CCCNC(=N)N)C(=O)N[C@@H](C)C(=O)NC(C)(C)C(=O)N[C@@H](CCC(=O)O)C(=O)N[C@@H](Cc1ccccc1)C(=O)N[C@H](C(=O)N[C@@H](CCC(N)=O)C(=O)N[C@@H](Cc1c[nH]c2ccccc12)C(=O)N[C@@H](CC(C)C)C(=O)N[C@@H](CC(C)C)C(=O)N[C@@H](CC(=O)O)C(=O)NCC(=O)NCC(=O)N1CCC[C@H]1C(=O)N[C@@H](CO)C(=O)N[C@@H](CO)C(=O)NCC(=O)N[C@@H](C)C(=O)N1CCC[C@H]1C(=O)N1CCC[C@H]1C(=O)N1CCC[C@H]1C(=O)N[C@@H](CO)C(N)=O)C(C)C)C(=O)O
# B3: peptide of SEQ ID NO: 207 (peptide)
# peptide: H[Aib]QGTFTSDK([γGlu-γGlu-Palmitoyl])SKYLDERAAQDFVQWLLDGGPSSGAPPPSG-NH2
# modifications: N-terminus assumed
# SMILES: CCCCCCCCCCCCCCCC(=O)N[C@@H](CCC(=O)N[C@@H](CCC(=O)NCCCC[C@H](NC(=O)[C@H](CC(=O)O)NC(=O)[C@H](CO)NC(=O)[C@@H](NC(=O)[C@H](Cc1ccccc1)NC(=O)[C@@H](NC(=O)CNC(=O)[C@H](CCC(N)=O)NC(=O)C(C)(C)NC(=O)[C@@H](N)Cc1c[nH]cn1)[C@@H](C)O)[C@@H](C)O)C(=O)N[C@@H](CO)C(=O)N[C@@H](CCCCN)C(=O)N[C@@H](Cc1ccc(O)cc1)C(=O)N[C@@H](CC(C)C)C(=O)N[C@@H](CC(=O)O)C(=O)N[C@@H](CCC(=O)O)C(=O)N[C@@H](CCCNC(=N)N)C(=O)N[C@@H](C)C(=O)N[C@@H](C)C(=O)N[C@@H](CCC(N)=O)C(=O)N[C@@H](CC(=O)O)C(=O)N[C@@H](Cc1ccccc1)C(=O)N[C@H](C(=O)N[C@@H](CCC(N)=O)C(=O)N[C@@H](Cc1c[nH]c2ccccc12)C(=O)N[C@@H](CC(C)C)C(=O)N[C@@H](CC(C)C)C(=O)N[C@@H](CC(=O)O)C(=O)NCC(=O)NCC(=O)N1CCC[C@H]1C(=O)N[C@@H](CO)C(=O)N[C@@H](CO)C(=O)NCC(=O)N[C@@H](C)C(=O)N1CCC[C@H]1C(=O)N1CCC[C@H]1C(=O)N1CCC[C@H]1C(=O)N[C@@H](CO)C(=O)NCC(N)=O)C(C)C)C(=O)O)C(=O)O
# B4: dual acylated peptide of SEQ ID NO: 160 (peptide)
# peptide: HXQGTFTSDKSKYLDERAAQDFVQWLLDGGPSSGAPPPS
# modifications: aib at 2; Lys10 carrying two acylations in a branched formation, K*K(rEC16)2; amide
# B5: dual acylated peptide of SEQ ID NO: 162 (peptide)
# peptide: B4 peptide
# modifications: aib at 2; Lys10 carrying two acylations in a linear formation, K*(C12-rEC16); amide
# Columns and labels:
# Test in all cases: cell-based or functional assay
# GIP receptor [1] = molecular target: T1, GIP receptor
# glucagon receptor [2] = molecular target: T2, glucagon receptor (UniProt P47871 26-477, limits assumed)
# T2 sequence (P47871 26-477 limits assumed): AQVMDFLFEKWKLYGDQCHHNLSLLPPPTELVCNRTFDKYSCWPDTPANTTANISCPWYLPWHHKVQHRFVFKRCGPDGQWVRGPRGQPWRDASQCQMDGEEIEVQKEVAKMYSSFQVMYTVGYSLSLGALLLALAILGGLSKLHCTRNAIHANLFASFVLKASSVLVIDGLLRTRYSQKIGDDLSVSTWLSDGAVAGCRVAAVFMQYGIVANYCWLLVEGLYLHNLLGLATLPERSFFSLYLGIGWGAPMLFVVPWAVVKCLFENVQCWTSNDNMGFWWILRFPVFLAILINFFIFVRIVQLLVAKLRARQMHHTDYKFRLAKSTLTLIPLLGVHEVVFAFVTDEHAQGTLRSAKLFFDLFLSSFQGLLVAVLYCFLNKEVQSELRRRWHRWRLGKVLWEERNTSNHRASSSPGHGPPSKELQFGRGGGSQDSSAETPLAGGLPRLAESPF
# GLP-1 receptor [3] = molecular target: T3, GLP-1 receptor (UniProt P43220 24-463, limits assumed)
# GIP receptor [4] = molecular target: T1, GIP receptor; remark: listed apart in the source
# glucagon receptor [5] = molecular target: T2, glucagon receptor; remark: listed apart in the source
# GLP-1 receptor [6] = molecular target: T3, GLP-1 receptor; remark: listed apart in the source
# Target sequence in this assay (P43220 24-463 limits assumed): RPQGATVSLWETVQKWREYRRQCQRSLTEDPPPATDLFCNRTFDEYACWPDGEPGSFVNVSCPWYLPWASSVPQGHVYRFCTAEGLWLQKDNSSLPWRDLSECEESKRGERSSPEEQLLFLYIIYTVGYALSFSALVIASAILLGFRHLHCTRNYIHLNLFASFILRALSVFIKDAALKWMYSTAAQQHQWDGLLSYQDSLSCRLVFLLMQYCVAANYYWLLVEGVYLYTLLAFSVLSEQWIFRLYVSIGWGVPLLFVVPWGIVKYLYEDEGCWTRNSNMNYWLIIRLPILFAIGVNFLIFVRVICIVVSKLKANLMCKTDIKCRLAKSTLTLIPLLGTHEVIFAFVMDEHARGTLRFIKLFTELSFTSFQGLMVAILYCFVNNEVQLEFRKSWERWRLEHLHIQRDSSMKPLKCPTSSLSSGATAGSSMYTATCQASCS
# GIP receptor [7] = molecular target: T1, GIP receptor; remark: listed apart in the source
# glucagon receptor [8] = molecular target: T2, glucagon receptor; remark: listed apart in the source
# GLP-1 receptor [9] = molecular target: T3, GLP-1 receptor; remark: listed apart in the source
# Target sequence in this assay (P43220 24-463 limits assumed): as above
# GIP receptor [10] = molecular target: T1, GIP receptor; remark: listed apart in the source
# glucagon receptor [11] = molecular target: T2, glucagon receptor; remark: listed apart in the source
# GLP-1 receptor [12] = molecular target: T3, GLP-1 receptor; remark: listed apart in the source
binder,measurement,setting,value
B1,"EC50 (cAMP, nmole)",GIP receptor [1],0.024 nmol
same,"EC50 (cAMP, nmole)",glucagon receptor [2],0.018 nmol
same,"EC50 (cAMP, nmole)",GLP-1 receptor [3],0.011 nmol
B2,"activity (cAMP reporter), column GIP",GIP receptor [4],0.003
same,"activity (cAMP reporter), column Glu",glucagon receptor [5],0.004
same,"activity (cAMP reporter), column GLP",GLP-1 receptor [6],0.006
same,EC50 (cAMP reporter),GIP receptor [7],2 pM
same,EC50 (cAMP reporter),glucagon receptor [8],4 pM
same,EC50 (cAMP reporter),GLP-1 receptor [9],6 pM
"H[Aib]EGTFTSDK([γGlu-C16])SKYLDERRA[Aib]EFVQWLLDGGPSSGAPPPS-NH2 [Analog No. 62: Aib2, E3, K10acyl, E16, Aib20, E21, L27, D28, G29 + CEX (SEQ ID NO: 38)]","activity (cAMP reporter), column GIP",GIP receptor [4],0.012
same,"activity (cAMP reporter), column Glu",glucagon receptor [5],0.127
same,"activity (cAMP reporter), column GLP",GLP-1 receptor [6],0.008
same,EC50 (cAMP reporter),GIP receptor [7],12 pM
same,EC50 (cAMP reporter),glucagon receptor [8],127 pM
same,EC50 (cAMP reporter),GLP-1 receptor [9],8 pM
B3,EC50 (cAMP reporter),GIP receptor [10],15 pM
same,EC50 (cAMP reporter),glucagon receptor [11],5 pM
same,EC50 (cAMP reporter),GLP-1 receptor [12],2 pM
B4,"EC50 (cAMP, nmole)",GIP receptor [1],0.015 nmol
same,"EC50 (cAMP, nmole)",glucagon receptor [2],0.024 nmol
same,"EC50 (cAMP, nmole)",GLP-1 receptor [3],0.007 nmol
B5,"EC50 (cAMP, nmole)",GIP receptor [1],0.033 nmol
same,"EC50 (cAMP, nmole)",glucagon receptor [2],0.008 nmol
same,"EC50 (cAMP, nmole)",GLP-1 receptor [3],0.003 nmol
H[Aib]QGTFTSDYSKYLDERAAQDFVQWLLDGGPSSGAPPPSK-NH2 (also: Lys40 branched dual acylation K*K(γE-C16)2) [dual acylated peptide of SEQ ID NO: 161],"EC50 (cAMP, nmole)",GIP receptor [1],0.01 nmol
same,"EC50 (cAMP, nmole)",glucagon receptor [2],0.011 nmol
same,"EC50 (cAMP, nmole)",GLP-1 receptor [3],0.007 nmol
